In a protein production outcome set (Wang et al. 2014):

Assay: label from the status in PepcDB records
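Further: failed if final PepcDB status was selected cloned or expressed and not failed if soluble or beyond.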

Sequence | protein production
PPLEINSRVSLKVGETIESGTVIFCDVLPGKESLGYFVGVDMDNPIGNWDGRFDGVQLCSFACVESTILLHINDIIPES | not failed
MSAVKSVSSFRLASLLRRENDPSAAMKLFRNPDPESTNPKRPFRYSLLCYDIIITKLGGSKMFDELDQVLLHLKTDTRIVPTEIIFCNVINFFGRGKLPSRALHMFDEMPQYRCQRTVKSLNSLLSALLKCGELEKMKERLSSIDEFGKPDACTYNILIHGCSQSGCFDDALKLFDEMVKKKVKPTGVTFGTLIHGLCKDSRVKEALKMKHDMLKVYGVRPTVHIYASLIKALCQIGELSFAFKLKDEAYEGKIKVDAAIYSTLISSLIKAGRSNEVSMILEEMSEKGCKPDTVTYNVLINGFCVENDSESANRVLDEMVEKGLKPDVISYNMILGVFFRIKKWEEATYLFEDMPRRGCSPDTLSYRIVFDGLCEGLQFEEAAVILDEMLFKGYKPRRDRLEGFLQKLCESGKLEILSKVISSLHRGIAGDADVWSVMIPTMCKEPVISDSIDLLLNTVKEDGPLSAMPQC | failed
MSDIAVRPIRAEDVPQACAILNRIIEIGGTTAFEQPVSEDEFDAWYVNGADLICCHVALDAAGAVAGFQWLGRNDSLPEGCGDIASFTRREPVLRGAGRALFACTVAVARDRGLAEINATIRADNALGLAYYGKMGFRDHVVTPAVPLRDGRPVDRISKRFDLRG | failed
MAIAPTIQPLPAPWVARMAAGEVIDSLAAVVRELCENSLDAGTQRLVIDLWPEQWRVRVADDGMGLSLENLQLAALAHTSSKLSPDRFTAEQLGFRGEALHSLARLGRLTIASRTADAAAGWQISYDIGGQPQVATPIAIAPGCIVEVQQLFQDWLERRQSQPSPAQQLRAVQQQIQNLVLAHPSITVQVTQNDRPWLAFAPVHHPQERLLQLLPNTSPADWRSQSLDLGSEGQLQVVVGLPDRCHRRRPDWVKVAVNGRVVRVSELEQAMIGALHRSLPRDRFPVVFAHLQVPPSQVDWHRHPAKAELFLQDLPVWCERIQEAIAQTLPLDPAEEIELPASTALLRVAETTGSYSESPSHLRAIAQVLNTYVLAEQGDSLWLIEQHIAHERVLFEQLQDDWQLVACQQPILLSKLSLEQRLQLDRLGITAEDFGEDLWAIRHIPAALAQREDLVEALLELSRGWDLSAAQAAIACRTAIRNGTLLYPEEQQTLIDRWQHCRQPRTCPHGRPIALVLPETSLARYFRRQWMIGRSHGLGDP | failed
MSKVCQVTGKRPVVGNNVSHANNKTKRRFEPNLHHHRFWLESEKRFVRLRLTTKGMRIIDKLGIEKVVADLRAQGQKI | failed
MKLFFTDGQFAVAGYSRPDVPFLCDAEMELVDAPNRYLRYIATVKGRTRAANTWRTYGAALYEFFAFLEANGLAWDRVDQSQIAAWRDTMLERGCARSTVNQRLRTVDAFYNWAKSNGMTHSIPFDRTDVWVAKPRGFLAHVDASGDRFEANSLTVQTHKVTPQFLHLDRAIRFLDALTPYRMRLMGYLALLTGMRREEVVSMDCRVLPNPAGRDSNKQIPMHLDPSITPTKGEKDRTVMLPYDLAVALYQYFTFERSRLLAKHRAKFGIETTLLFLSQTGDPLSVNGLNNAFRRVSQKTGIWCTPHMLRHTFGTYELMRMSRQKTQTQALLWVRDRMGHNSITTTEIYVHAADLVEHDDVDGYHLDICRALAHGNPTSKT | failed
MAINLNDYKRVAQNLKVNKKNMREFLFDFRVNGKRYRKVETLIERTGWNKKDYEREAQLLLIDYRKKVEANTGNLQITSNTRLNELWELYFQTLDKSTSWTFTKESFYNRYLKEPLGKKKLDSIQEHHIMAIIRHLQAEGMATRTVNTTLEILRPLFDFAIKNKALRDNPTRFIVLKKDNTKKIVINGAEMFKRIFEGINDYYSSQPFYRALFLFGFTGRRKGEILKLKWENIDLDNNYYWIEDTKNNEKQKYELPHFIKEALLQIQDTHTGLVFKSPVTGRMLENTDGQMNKLKKHLNMPELTLHYMRNVLVSALAERGTEAITLSGMLGHRDATTINKYLSLSYHNSSKKGNATMGQIIDAEVVE | failed
MEAFGGFVMDEQAIQVENVFLEFLKSFRLDANKPELYYEAEIEAIRGGESTMMYIDFSHVMGFNDALQKAIADEYLRFEPYLRNACKRFVIEMNPSFISDDTPNKDINVSFYNLPFTKRLRELTTAEIGKLVSVTGVVTRTSEVRPELLYGTFKCLDCGSVIKNVEQQFKYTQPTICVSPTCLNRARWALLRQESKFADWQRVRMQETSKEIPAGSLPRSLDVILRHEIVEQARAGDTVIFTGTVVVIPDISALAAPGERAECRRDSSQQKSSTAGHEGVQGLKALGVRDLSYRLAFIANSVQIADGSRNTDMRNRQNDSNEDDQQQFTAEELDEIQQMRNTPDYFNKLVGSMAPTVFGHQDIKRAVLLMLLGGVHKTTHEGINLRGDINVCIVGDPSCAKSQFLKYTAGIVPRSVYTSGKSSSAAGLTATVAKEPETGEFCIEAGALMLADNGICCIDEFDKMDIKDQVAIHEAMEQQTISITKAGIQATLNARTSILAAANPVGGRYDKSKPLKYNVNLPPAILSRFDLVYVMIDDPDEVTDYHIAHHIVRVHQKHEAALSPEFTTVQLKRYIAYAKTLKPKLSPEARKLLVESYVALRRGDTTPGTRVAYRMTVRQLEALIRLSEAIARSHLEILVKPSHVLLAVRLLKTSVISVESGDIDLSEYQDANGDNMDDTDDIENPVDGEEDQQNGAAEPASATADNGAAAQKLVISEEEYDRITQALVIRLRQHEETVNKDSSELPGIRQKELIRWFIDQQNEKKKYSSQEQVKLDIKKLRAIIESLVCKEGHLIVLANEQEEAAEAEETKKKSSQRDERILAVAPNYVIE | failed
MKGNFHSTYDQGFARVAACTTTVHIGDPASNVAGILDTCRELSSRSVAIAVFPELCLTGYAIDDLLLQDVVLDAVLDAIETVRQASRSLFPVIIVGAPLQRGNRLYNCAVVIHRGQVLGVVPKSHLPNYREFYEKRHFAVGAGTTGMIDLSGRQKSHAASTEIPFGPDQLFRATDLPDLTFHVEVCEDLWVPVAPSSQAALAGAVVEVNLSGSPITVGKSRQRHELCKVTSSRNLQAYVYAAAGPGESSTDLSWDGQTMIYENGSLLAATDRFSPEPGYCLADIDLDLLRQERLRQGSFDDNALAQPAQAPWRTTIFTLDPPHDDIGLERPVNRFPFVPNDPDQLAQDCYEAYNIQVYGLRRRLESMGSPKIVIGVSGGLDSTHALLVAAKAMDQMGRPRTDILAFTMPGFATTDHTKNNALDMCRALGIPCEVLDIRPAATQMLKGMSHPAGDGAEVYDVTFENVQAGLRYDYLFRIANQRGGIVLGTGDLSELALGWCTFGVGDQMSHYGVNTGVPKTLIQHLIRWCISSGQFNEATNVVLESVLGTEISPELVPARPGEKIQSTQAKIGPYELQDFTLYHLLRHGMRPSRIIFLSHHAWRDASVGSWPPGFRDEDRHSYDLSAIKDWTRLFLRRFVGNQFKRSTLPNGPKVVAGGSLSPRGDWRMPSDAVVRAWLDDLETVPDERF | failed
MKPADLTNADRIALELGHAGRNAIPYLDDDRNADRPFTLNTYRPYGYTPDRPVVVVQHGVLRNGADYRDFWIPAADRHKLLIVAPTFSDEIWPGVESYNNGRAFTAAGNPRHVDGWTYALVARVLANIRAAEIADCEQVYLFGHSAGGQFVHRLMSSQPHAPFHAVTAANPGWYTLPTFEHRFPEGLDGVGLTEDHLARLLAYPMTILAGDQDIATDDPNLPSEPAALRQGPHRYARARHYYEAGQRAAAQRGLPFGWQLQVVPGIGHDGQAMSQVCASLWFDGRMPDAAELARLAGSQSA | not failed
MLFNSFEFMLLFLPIAVIGYFLLQKVNKNFAKLFLVGMSLYFYAYFEVKYLLLIGVSLFTNAFIGQQIIQKINQKTRKVFLIVGLVFNISLLGYFKYSDFFLDNINTLFGTDVPLLKLLLPLGISFITFQKIGFLVDCYKRELTKFNFIDFCLFVTFFPQLIAGPIVHHSKVLPQFQDESKRRPNIENITKGLYIFGIGLTKKVVIADSLAQWADFGFSNVNQLSTTDAWVSSLAYTLQLYFDFSGYCDMAIGAALLFNIILPINFFSPYKSLSIQDFWRRWHMTLGRFFTQYVYIPLGGSRKGQIRTYLNLFTIFLISGIWHGAGWTFVIWGVLHGLAIVIHRLFKNLGGKMPKFIAWILTMGFVHVTWVFFRATSVEDALTMLNRMFNVNYLHIQTALIQFRPETLTGVSIMDNLIYSICNLFPFQVTGDHFNFQTILYLAIGIAIVLFTKNSIEKLESFRPKPIYALALASMFILSLMYLNRVSSFLYFNF | failed
MEFDKGQTLGNFIDRIRLNGYNTECVFNQSICQDIKNHYKQQCCAMCGVRGNSENTQIEVDHKDGRKDDSRVSDLSTQAFDDFQALCKACNDKKRQICKKCKETGYRFDARKIPGNHYSFYEGEAEYDGCVGCYQYDPIQYRKTCNDRIYNEGYQKGYSDGYQIGYHQKTT | failed
MENSGAYTFETIAREWHESNKRWSEDHRSRVLRYLELYIFPHIGSSDIRQLKTSHLLAPIKEVDTSGKHDVAQRLQQRVTAIMRYAVQNDYIDSNPASDMAGALSTTKARHYPLEHHHHHH | not failed
MSLEGFICKFNRKRRLYIENIMQVRVTGILIEDEKVLLVKQKVANRDWSLPGGRVENGETLEEAMIREMREETGLEVKIKKLLYVCDKPDASPSLLHITFLLERIEGEITLPSNEFDHNPIHDVQMVPINELSYYGFSETFINLISGGLANAGSYQGLKRNIGEGHHHHHH | not failed
MEVKVQSDDLEYVVSTVRSYINSYETDVNPLYIRFYFFESDNPLLDENFDEIRKILVPSGYIPAVIKGPENYIEVTRRPKENYRSIYVNIIMLVLTLLSTVYVGSIYAASFVRPGPYYEFYKLLYGFVFFSLPLMFILGIHETAHYLVARRYRVNASLPFFIPFPYIIGTFGAFVSLRDPIPDRKAMTEIGAAGPIAGFLASIPLMFLAQYFEKVIKPVNNVIPFQLNYPLIYKLFGIFEPVKVPVFPMVFAVWVGIFATAMNLIPAGQLDGGHIVRGLLGSRAYILNYIFLGFLFYLAIVYNYLGWLFLALFVIFLGLVHPPALNDYARIKMRDVFIGIFCLLMFIITFTPLPIKP | failed
MAAITEFLPKEYGYVVLVLVFYCFLNLWMGAQVGRARKRYNVPYPTLYAIESENKDAKLFNCVQRGHQNSLEMMPMYFILMILGGMKHPCICTGLGLLYNVSRFFYFKGYATGDPMKRLTIGKYGFLGLLGLMICTISFGVTLILA | failed
METRAHHVLIGLFTVIVVAGALLFGLWLAKSSVDSAFQDYQIVFNEAVSGLSKGSSVQYSGIKVGDVVNLRLDPKDPRRVLAQIRLGSETPIKEDTQAKLALTGITGTSIIQLSGGTPQSPTLKGKDGELPTIIASPSPIARLLNNSNDLMTGVNLLLHNANRMFSPDNVARVSSTLDNLQKTSASIAEQRDDLRQLMQQLGSISKQTGAMLEQTTALMRNANGLLNDQGKQMFGSAEHAMRSLEQSSATLNKLLSDNQDSLNNGMQGLNGLAPAVRELRETLSSLRAITRRLEANPGGYLLGNEKNKEFTPLEHHHHHH | not failed
MNRICELLGIEHPIISGGMVWCSGWKLASAVSNCGGLGLIGAGSMHPDNLEHHIRSCKAATDKPFGVNVPLLYPEMDKIMEIIMREHVPVVVTSAGSPKVWTAKLKAAGSKVIHV | failed
MAQTDKHYFGTLLAQTSRAWRAELDRRLSHLGLSQARWLVLLHLARHRDSPTQRELAQSVGVEGPTLARLLDGLESQGLVRRLAVAEDRRAKHIVLTPKADVLIADIEAIAASVRNDVLTGIDESEQALCQQVLLRILANLENR | not failed
MSMHPFLASPQQKIVSRMSPRPPPSPVCLGDLTHPIIAGLISVIVNYGGTFILVFQAAKIAGLSPELTASWVWSISIGVGLTGLFLSLRYREPIITAWSTPAAAFLVTALATTPYAEAIGAYMISAAAFVVLGLSGYFEKVIRLIPPGIASGLLAGILLQFGIGAFGGASVDPWLVGLLIAAYVALKRFSARYAVVGILLLGLAFLLTQGRVDLSGLKLVFAAPVFSMPEFSLNALLSVALPLFLITLTGQYMPGMLVLRNDGFKTSANPIVTVTGLGSLIMAPFGSHAFNIAAITAAIATGREAHEDPSKRWIAGIAAGCFYVLVGVFGVTLAAVFMAFPATFITTLAGLALLGTIGGSLAGAMADPTSREAALITFLASAANIKLLGIGGAFWGLLIGGLAYVVLNGPMPYRATTDHRVTEAAAK | failed
